Source: patent publication US20260216242A1 (ALMAC DISCOVERY, published 2026)
Changes are numbered by the printed parent chain. Names may count otherwise.

T1: human ALPI (intestinal alkaline phosphatase) expressed on the surface of CHO cells (human, UniProt P09923 20-503)
T1 sequence (looked up): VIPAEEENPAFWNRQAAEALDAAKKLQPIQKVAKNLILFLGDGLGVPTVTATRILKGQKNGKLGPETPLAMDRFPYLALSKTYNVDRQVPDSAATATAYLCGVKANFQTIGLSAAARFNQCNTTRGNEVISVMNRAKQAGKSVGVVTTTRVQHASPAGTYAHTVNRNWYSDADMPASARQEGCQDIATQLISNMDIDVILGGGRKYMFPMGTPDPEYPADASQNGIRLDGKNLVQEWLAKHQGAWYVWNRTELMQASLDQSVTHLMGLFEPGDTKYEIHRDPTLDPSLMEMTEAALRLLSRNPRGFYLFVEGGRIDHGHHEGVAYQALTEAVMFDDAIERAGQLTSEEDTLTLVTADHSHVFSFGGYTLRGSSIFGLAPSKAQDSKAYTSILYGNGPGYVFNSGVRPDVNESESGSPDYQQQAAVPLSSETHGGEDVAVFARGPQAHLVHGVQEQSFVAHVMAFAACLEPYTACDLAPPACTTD

T2: human ALPL (tissue non-specific alkaline phosphatase) expressed on the surface of CHO cells (human, UniProt P05186 18-501)
T2 sequence (looked up): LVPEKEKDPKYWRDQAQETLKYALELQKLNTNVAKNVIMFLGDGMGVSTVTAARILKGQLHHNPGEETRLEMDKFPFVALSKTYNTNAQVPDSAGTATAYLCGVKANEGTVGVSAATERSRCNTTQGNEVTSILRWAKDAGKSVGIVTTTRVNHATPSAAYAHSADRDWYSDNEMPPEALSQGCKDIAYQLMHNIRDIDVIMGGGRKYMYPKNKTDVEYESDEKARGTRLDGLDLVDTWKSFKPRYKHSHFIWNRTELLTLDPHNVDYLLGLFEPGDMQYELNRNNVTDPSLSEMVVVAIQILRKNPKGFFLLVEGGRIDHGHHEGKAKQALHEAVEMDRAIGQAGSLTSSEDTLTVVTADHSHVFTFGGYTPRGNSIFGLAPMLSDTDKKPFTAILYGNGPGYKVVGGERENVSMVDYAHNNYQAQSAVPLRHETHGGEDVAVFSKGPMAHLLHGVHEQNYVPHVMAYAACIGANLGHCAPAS

T3: ALPI His homodimer (human, UniProt P09923 20-503)
T3 construct: Whole entry with His tag; used in ELISA and BLI; also called hALPI
T3 sequence: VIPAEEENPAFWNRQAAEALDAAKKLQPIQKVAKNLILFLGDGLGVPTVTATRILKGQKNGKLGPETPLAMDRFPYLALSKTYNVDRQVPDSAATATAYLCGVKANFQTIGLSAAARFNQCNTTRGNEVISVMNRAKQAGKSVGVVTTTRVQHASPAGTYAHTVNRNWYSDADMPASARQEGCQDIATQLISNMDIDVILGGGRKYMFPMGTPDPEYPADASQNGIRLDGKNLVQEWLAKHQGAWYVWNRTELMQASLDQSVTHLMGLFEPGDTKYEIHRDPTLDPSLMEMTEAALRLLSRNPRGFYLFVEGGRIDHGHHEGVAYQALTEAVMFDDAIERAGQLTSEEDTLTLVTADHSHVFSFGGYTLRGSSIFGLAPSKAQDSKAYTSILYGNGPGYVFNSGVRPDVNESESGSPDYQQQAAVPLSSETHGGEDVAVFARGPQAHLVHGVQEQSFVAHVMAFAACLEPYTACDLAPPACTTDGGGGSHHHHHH

T4: Human ALPP (leucine zipper) (human)
T4 construct: Whole entry: ALPP fused with a cysteine stabilised leucine zipper and His tag; also called hALPP
T4 chain: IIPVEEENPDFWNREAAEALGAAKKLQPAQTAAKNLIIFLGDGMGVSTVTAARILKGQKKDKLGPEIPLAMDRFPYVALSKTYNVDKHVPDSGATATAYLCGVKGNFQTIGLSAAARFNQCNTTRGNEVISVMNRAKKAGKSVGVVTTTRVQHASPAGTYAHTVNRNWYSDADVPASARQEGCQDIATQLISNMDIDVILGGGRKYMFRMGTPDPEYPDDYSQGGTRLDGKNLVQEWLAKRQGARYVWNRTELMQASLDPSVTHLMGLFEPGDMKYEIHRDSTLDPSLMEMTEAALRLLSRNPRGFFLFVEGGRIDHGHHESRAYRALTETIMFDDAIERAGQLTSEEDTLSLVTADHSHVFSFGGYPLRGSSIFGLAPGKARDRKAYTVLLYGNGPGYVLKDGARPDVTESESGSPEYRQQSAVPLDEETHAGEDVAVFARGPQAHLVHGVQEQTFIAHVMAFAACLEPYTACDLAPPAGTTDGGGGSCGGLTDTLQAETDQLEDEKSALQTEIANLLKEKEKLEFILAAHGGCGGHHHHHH

T5: Human ALPL (leucine zipper) (human)
T5 construct: Whole entry: fused with a cysteine stabilised leucine zipper and His tag; also called hALPL
T5 chain: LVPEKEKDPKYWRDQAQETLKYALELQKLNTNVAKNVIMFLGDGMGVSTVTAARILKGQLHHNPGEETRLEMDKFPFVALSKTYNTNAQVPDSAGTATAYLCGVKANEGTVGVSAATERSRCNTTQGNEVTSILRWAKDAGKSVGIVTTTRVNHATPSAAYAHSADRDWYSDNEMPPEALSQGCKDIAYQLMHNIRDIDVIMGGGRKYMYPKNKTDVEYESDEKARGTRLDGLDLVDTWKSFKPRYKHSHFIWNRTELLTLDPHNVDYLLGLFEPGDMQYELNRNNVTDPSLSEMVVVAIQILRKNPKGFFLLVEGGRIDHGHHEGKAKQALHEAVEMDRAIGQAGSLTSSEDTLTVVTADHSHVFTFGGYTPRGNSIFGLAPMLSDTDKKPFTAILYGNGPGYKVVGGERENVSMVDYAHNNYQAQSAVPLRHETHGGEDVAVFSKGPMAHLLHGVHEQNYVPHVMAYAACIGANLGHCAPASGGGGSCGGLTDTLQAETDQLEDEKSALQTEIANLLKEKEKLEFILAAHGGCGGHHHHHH

B1: A06 F05-hFc (S239/442C T366Y/Y407T), [G4S]1 linker, MC-vc-PAB-MMAE conjugate, #712 (Fc fusion, DAR 4)
chain 1: QVHLVESGGGLVQAGGSLRLSCAASGRTFLSMGWFRQAPGKEREFVAAISWTGGSTGYADSVKGRFTISRESDKETMYLQMNSLKPEDTAVYYCAARGDVYYGGDDATRYKYWGQGTQVTVSSGGGGSEPKSSDKTHTCPPCPAPELLGGPCVFLFPPKPKDTLMISRTPEVTCVVVDVSHEDPEVKFNWYVDGVEVHNAKTKPREEQYNSTYRVVSVLTVLHQDWLNGKEYKCKVSNKALPAPIEKTISKAKGQPREPQVYTLPPSRDELTKNQVSLYCLVKGFYPSDIAVEWESNGQPENNYKTTPPVLDSDGSFFLYSKLTVDKSRWQQGNVFSCSVMHEALHNHYTQKSLCLSPGK
chain 2: QVQLVESGGGLVQAGGSLRLSCAASGRAFGDYNIGWFRQAPGKEREFVARRTWDGSSTRYDDSVKGRFTVSIDNAKNTAYLQMNSLKTEDTAVYYCAAGRYSRVRGWEYDYWGQGTQVTVSSGGGGSEPKSSDKTHTCPPCPAPELLGGPCVFLFPPKPKDTLMISRTPEVTCVVVDVSHEDPEVKFNWYVDGVEVHNAKTKPREEQYNSTYRVVSVLTVLHQDWLNGKEYKCKVSNKALPAPIEKTISKAKGQPREPQVYTLPPSRDELTKNQVSLTCLVKGFYPSDIAVEWESNGQPENNYKTTPPVLDSDGSFFLTSKLTVDKSRWQQGNVFSCSVMHEALHNHYTQKSLCLSPGK
modifications: MC-vc-PAB-MMAE on Cys of S239C and S442C (EU numbering)
notes: also called A06-F05-hFc-vcPAB-MMAE; A06-F05 hFc-vc-MMAE
B2: F12 (VHH, not shown: small tags and cut ends)
VHH: QVQLVESGGGLVEAGGSLRLSCAVSGSALSDYNIGWFRQAPGKEREFVARKTWDGSSTKYDDSVKGRFTVSIDNAKNTAYLQMNSLKTEDTAVYYCAAGRYSRVRGWEYDYWGQRTQVTVSS
B3: B09 (VHH, not shown: small tags and cut ends)
VHH: QVQLVESGGGSVQAGGSLRLSCAASGPSLSHYAMGWFRQAPGKEREFVAGISWGGGRTSYTDSVKGRFTISRDNAKNTVYLQMNNLKPEDTGVYYCAGRYGRGRNVEYEYDYWGQGTQVTVSS
B4: E11 (VHH, not shown: small tags and cut ends)
VHH: B3 VHH with H31N, Y32F, A40P
B5: E12 (VHH, not shown: small tags and cut ends)
VHH: B3 VHH with L29I, H31N, Y32F, S59N, T61L, T78M, Y80H, N85S, G92T, N105D

Columns and labels:
[1] = target: T6, human ALPPL2 (alkaline phosphatase, germ cell type) expressed on the surface of CHO cells (human, UniProt P10696 20-503); assay: cell-based or functional assay
[2] = target: T1, human ALPI (intestinal alkaline …); assay: cell-based or functional assay
[3] = target: T2, human ALPL (tissue non-specific …); assay: cell-based or functional assay
[4] = target: T2, human ALPL (tissue non-specific …); assay: flow cytometry, CHO-ALPL cells
[5] = target: T1, human ALPI (intestinal alkaline …); assay: flow cytometry on CHO-ALPI cells
[6] = target: T7, human ALPP (alkaline phosphatase, placental type) expressed on the surface of CHO cells (human, UniProt P05187 23-506); assay: flow cytometry on CHO-ALPP cells, apparent KD (KDapp)
T7 construct: also called CHO-ALPP; hALPP
Method: (§1) Biparatopic VHH-hFc drug conjugates were assessed for human ALPP, ALPPL2, ALPI and ALPL cell-surface binding by flow cytometry. Binders were screened on CHO cells stably expressing human ALPP, ALPPL2, ALPI or ALPL.
(§2) Cell surface binding of test agents to hALPP isoforms was characterized in four CHO-ALPP isoform transfectant cell lines (CHO-ALPP, CHO-ALPPL2, CHO-ALPI and CHO-ALPL) and the resulting KDapp values determined. Adherent cells were detached from tissue culture flasks by incubating with 0.1% EDTA/PBS solution at 37° C. for […] or until cells detached easily. Cells were re-suspended in ice-cold PBS/2% FCS in 15 ml tubes and centrifuged at 1700 rpm for 5 mins at 4° C. Supernatant was removed and the cell pellet re-suspended in PBS/2% FCS. […] Cells were incubated with 100 μl of test agents at a range of concentrations, plus controls for 1 hr on ice. The sample plate was centrifuged at 1700 rpm for 5 mins at 4° C. The supernatant was removed, and a wash performed by re-suspending the cell pellets in 0.25 mL of ice-cold PBS/2% FCS using a multichannel pipette. Samples were again centrifuged at 1700 rpm for 5 min at 4° C. Supernatant was removed and two further washes performed as described. After the final wash and centrifugation step, excess liquid was removed by blotting the plate on tissue paper. Binding of VHH-hFc agents was determined by adding 100 μl of Fitc-anti-human Ab (ThermoFisher) and incubating for 30 mins on ice in the dark. Wash steps were performed as described previously. All cell pellets were finally re-suspended in 0.28 ml of ice-cold PBS/2% FCS and left on ice in the dark prior to analysis on a Merck-Millipore Guava EasyCyte HT or Thermo Fisher Attune N×T flow cytometer.

[7] = target: T6, human ALPPL2 (alkaline phosphatase, …); assay: flow cytometry on CHO-ALPPL2 cells, apparent KD (KDapp)
Method: as §1, §2

ALPP CysHis = target: T8, ALPP CysHis (human, UniProt P05187 23-502); assay: ELISA, antigen coated
T8 construct: Whole entry: engineered human ALPP with an introduced cysteine and a His tag; homodimer; also called engineered ALPP homodimer; hALPP (ELISA)
From the text: (§3) ELISA was used to test the binding and specificity of the VHHs. […] Anti-Llama—HRP antibody was used for detection.

ALPI His homodimer = target: T3, ALPI His homodimer; assay: ELISA, antigen coated
From the text: as §3

[8] = target: T4, Human ALPP (leucine zipper); assay: BLI, antigen immobilised
Method: (§4) Binding kinetics were determined using the Biolayer Interferometry (BLI) Octet K2 system (Sartorius). […] All assays were conducted in PBS with a plate temperature of 25° C. Ka (M⁻¹s⁻¹), Kd (s⁻¹) and KD (nM) values were determined using Octet Data Analysis High Throughput software (ForteBio) for Biolayer Interferometry.

[9] = target: T5, Human ALPL (leucine zipper); assay: BLI, antigen immobilised
Method: as §4

T6 sequence (P10696 20-503): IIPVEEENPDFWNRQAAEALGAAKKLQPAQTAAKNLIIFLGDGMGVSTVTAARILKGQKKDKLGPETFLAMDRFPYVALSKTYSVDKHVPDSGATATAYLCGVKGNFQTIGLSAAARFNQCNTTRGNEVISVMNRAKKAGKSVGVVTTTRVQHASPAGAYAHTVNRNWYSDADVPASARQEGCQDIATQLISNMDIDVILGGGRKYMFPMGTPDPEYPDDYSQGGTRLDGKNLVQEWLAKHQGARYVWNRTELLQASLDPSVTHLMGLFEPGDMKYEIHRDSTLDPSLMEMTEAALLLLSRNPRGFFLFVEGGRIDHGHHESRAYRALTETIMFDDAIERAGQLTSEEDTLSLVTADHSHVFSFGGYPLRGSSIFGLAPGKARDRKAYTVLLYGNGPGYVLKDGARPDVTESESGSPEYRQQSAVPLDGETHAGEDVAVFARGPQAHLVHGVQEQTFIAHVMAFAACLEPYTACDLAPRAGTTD

Binder | IC50 at 96 h, cell-killing of CHO-ALPPL2 cells [1] [nM] | IC50 at 96 h, cell-killing of CHO-ALPI cells (estimated from data extrapolation) [2] [nM] | IC50 at 96 h, cell-killing of CHO-ALPL cells (estimated from data extrapolation) [3] [nM] | binding result [4] | MFI on CHO-ALPI cells at 350 nM as percent of MFI on CHO-ALPP cells (KDapp not-determinable) [5] [%] | Kd [6] [nM] | Kd [7] [nM] | binding result (ALPP CysHis) | binding result (ALPI His homodimer) | Kd [8] [nM] | koff [8] [s⁻¹] | kon [8] [M⁻¹ s⁻¹] | binding result [9]
B1 | 14.8 | ~776 | ~551 | no binding (tested: 350 nM (highest concentration)) | ≤ 1 | 10.6 | 5.7 | – | – | – | – | – | –
B2 | – | – | – | – | – | – | – | binds | no binding (tested: 500 ng VHH) | < 0.01 | < 1e-07 | 38600 | no binding
B3 | – | – | – | – | – | – | – | binds | no binding (tested: 500 ng VHH) | < 0.01 | < 1e-07 | 237000 | no binding
B4 | – | – | – | – | – | – | – | binds | no binding (tested: 500 ng VHH) | – | – | 149000 | no binding
B5 | – | – | – | – | – | – | – | binds | no binding (tested: 500 ng VHH) | – | – | – | no binding
